{"source": "patent US20030186847A1", "about": "“Insulin derivatives and synthesis thereof” (priority 2000, published 2003)", "key": {"[1]": {"biological_target": "T1, plasma protein thyroxine binding globulin (TBG) (Homo sapiens, UniProt P05543)", "T1 sequence (P05543 21-415)": "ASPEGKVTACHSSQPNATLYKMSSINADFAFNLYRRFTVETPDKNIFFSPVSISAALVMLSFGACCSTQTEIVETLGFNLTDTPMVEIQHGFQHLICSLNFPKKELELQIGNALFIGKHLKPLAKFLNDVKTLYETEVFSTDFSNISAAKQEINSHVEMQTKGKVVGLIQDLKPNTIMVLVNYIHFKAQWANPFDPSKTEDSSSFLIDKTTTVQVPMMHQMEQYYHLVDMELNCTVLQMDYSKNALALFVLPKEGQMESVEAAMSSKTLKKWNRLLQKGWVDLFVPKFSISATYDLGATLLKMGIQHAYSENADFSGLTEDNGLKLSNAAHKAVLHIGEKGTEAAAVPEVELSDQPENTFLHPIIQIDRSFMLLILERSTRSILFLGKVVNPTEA", "test": "IAsys optical biosensor kinetic binding to immobilized TBG", "conditions": "control, 500 μg/ml", "procedure": "The optical bio-sensor IAsys makes it possible to record biomolecular interactions in real time and thus kinetical studies.\nThe surface of the cuvette is covered with a carboxymethylated dextran matrix (CMD), to which the plasma protein TBG is immobilized.\nImmobilization of TBG to the carboxymethylated matrix is detected via the change of the resonance angle.\nFor the kinetical studies the Thyroid-Insulin conjugates were injected into the microcuvette in dilution series of 200, 300, 400 and 500 μg/ml in HBS/Tween-buffer at 25° C. To test for reproducibility, all measurements were repeated 3 times.\nDetermination of “on-rate” constants kon at various ligand concentrations cL allow kon to be plotted against cL according to equation (4). This gives the association rate constant kA from the slope and the dissociation rate constant kD at C2=O. It has, however, to be taken into account that the error of kD becomes too large when kD<0,01 s^−1 (IAsys, METHODS GUIDE).\nThe association and dissociation curves of the 3 Thyroid-Insulin-conjugates indicated in Table 3 were analyzed with the program Fast-fit.\nEvaluation of dissociation was also via single phase curve-fitting, for the same reasons as above."}, "[2]": {"tested_on": "primary antibody W12 (polyclonal anti-insulin antibody)", "test": "Double-antibody radioimmunoassay: inhibition of [125I]insulin binding to primary antibody W12", "design": "species or system guinea-pig", "conditions": "standard solutions, RIA", "procedure": "The assay was calibrated using insulin standards. […] A double dispenser (Dilutrend, Boehringer Corporation London Ltd) was used to add the appropriate volume of buffer and standard or FPLC fractions into the labelled LP3 tubes. The total volume of each tube was 500 μl. In addition, three tubes of NSB (non-specific binding), containing the standardized HSA concentration, were prepared with, Barbitone/HSA(0.2% w/v) and FPLC/Barbitone/HSA buffers. […] The radioactivity in 100 μl of the resulting tracer solution was counted in the γ-counter, and the counts per minute (cpm) should lie between 3000-5000 cpm. ANSA (2 mg/ml) was dissolved in the solution, and it functioned to displace the T4 moieties on the analogues from the THBPs, since the THBP could be shielding the insulin moiety that was to be assayed. Finally, 100 μl of this solution was added to every tube. The primary antibody, [MUT], is a polyclonal, guinea-pig anti-insulin antibody. […] It was diluted to 1:45,000 in Barbitone/HSA(0.2% w/v) buffer, and 100 μl was added to every tube, except the TC and NSB tubes. […] Finally, the samples, together with the TC and NSB tubes, were counted in the γ-counter using a programme for […] ). Double antibody RIA was used to quantify the immunoreactive insulin (IRI) in the FPLC fractions."}, "[3]": {"biological_target": "T2, TBG (thyroxine binding globulin) (Homo sapiens, UniProt P05543)", "T2 sequence (P05543 21-415)": "T1 sequence (P05543 21-415)", "test": "FPLC binding to THBPs after overnight incubation, IRI by RIA: TBG", "conditions": "TBG 0.238 μM"}, "[4]": {"tested_on": "normal human serum (TBG, albumin, prealbumin)", "test": "FPLC binding to THBPs after overnight incubation, IRI by RIA: normal human serum", "format": "in vitro ADME", "conditions": "normal human serum undiluted", "protocol": "To ascertain the binding of the insulin or the analogue to the thyroid hormone binding proteins (THBPs), they were incubated overnight at 4° C. The bound and unbound species were separated by molecular weight with FPLC.\nSolutions (0.5 ml) of THBPs were prepared in FPLC buffer as follows and then vortexed:\nIt was vortexed and incubated at 4° C. for ≈16 hours or overnight. Before FPLC, it was vortexed again, and filtered through a syringe filter of pore size 0.2 μm (Acrodisc® LC13 PVDF from Gelman, UK) to remove bacteria and serum precipitates.\nThe fraction tubes (LP3 tubes) were coated with 50 μl 3% (w/v) HSA to prevent the analogues from adsorbing to the tubes' inner surfaces. The fraction size was programmed as 0.50 ml. Immunoreactive insulin in each fraction was assayed with radioimmunoassay on the same day.\nIRI content in each fraction was assayed by RIA.\nFIGS. 3a-d show the elution profiles of the conjugates after overnight incubation with 5% human serum albumin (HSA). […] The calculated % bound and % free values are included in Table 3. Appearances of the THBPS, as detected by UV absorbance on the original chromatogram (which was not sensitive enough to detect the analogues) are also indicated as arrows on the elution profiles. The shadowed box represents the bound fractions; the clear box represents free fractions."}, "insulin receptors on LPM": {"biological_target": "T3, insulin receptors on LPM (Rattus norvegicus, UniProt P15127)", "T3 construct": "isolate plasma membrane fractions from fresh rat livers; from tissue; host or cells: rat liver plasma membrane (microsomal light fraction)", "T3 sequence (P15127 27-759 limits assumed)": "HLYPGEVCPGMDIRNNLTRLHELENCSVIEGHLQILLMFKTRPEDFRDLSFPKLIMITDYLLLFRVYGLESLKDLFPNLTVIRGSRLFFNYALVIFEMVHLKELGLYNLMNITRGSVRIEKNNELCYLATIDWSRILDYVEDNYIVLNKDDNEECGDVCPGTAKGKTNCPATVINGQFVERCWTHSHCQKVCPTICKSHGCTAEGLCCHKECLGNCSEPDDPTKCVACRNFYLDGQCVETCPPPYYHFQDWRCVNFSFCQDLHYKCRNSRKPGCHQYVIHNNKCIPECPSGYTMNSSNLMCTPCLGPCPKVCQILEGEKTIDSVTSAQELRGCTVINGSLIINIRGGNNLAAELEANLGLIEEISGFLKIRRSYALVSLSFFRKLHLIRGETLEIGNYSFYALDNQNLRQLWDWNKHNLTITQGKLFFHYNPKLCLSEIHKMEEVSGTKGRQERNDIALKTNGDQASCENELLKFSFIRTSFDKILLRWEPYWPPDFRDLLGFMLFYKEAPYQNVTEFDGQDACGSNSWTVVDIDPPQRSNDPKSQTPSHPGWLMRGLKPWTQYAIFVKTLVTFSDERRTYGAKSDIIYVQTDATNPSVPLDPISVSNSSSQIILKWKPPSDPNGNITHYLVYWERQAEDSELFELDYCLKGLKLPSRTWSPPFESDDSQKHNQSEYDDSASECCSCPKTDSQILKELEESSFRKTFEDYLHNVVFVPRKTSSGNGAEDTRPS", "test": "Equilibrium binding assay: inhibition of [125I]insulin binding to rat liver plasma membrane (LPM)", "conditions": "absence of THBPs", "source_text": "Rat liver plasma membrane (LPM) was isolated to be used in equilibrium binding assays as the source of insulin receptors.\nThis equilibrium binding assay determines the analogues affinity to the insulin receptors on the LPM, both in the presence and absence of the THBPs. […] The amount of bound tracer was counted in the γ counter after separating the bound and free species by centrifugation.\nFor the binding assays performed in the presence THBP, shifts in the binding curves and the changes in ED50s and RPE are described relative to binging of the same analogue in the absence of THBP."}}, "note": "Where “and” joins values, the source holds several entries; their conditions need not be identical. Identical values can stand only once."}
{"substance": "H-Ins: unmodified (native, human) insulin used as control and reference", "values": [{"measurement": "association to immobilized TBG", "setting": "[1]", "result": "association cannot be observed"}, {"measurement": "ED50, inhibition of [125I]insulin binding to W12", "setting": "[2]", "result": 1065, "unit": "pM"}, {"measurement": "Mean % Free (fractions 15.5-25 ml)", "setting": "[3]", "result": 90.15, "unit": "%"}, {"measurement": "Mean % Bound (fractions 5.5-15 ml)", "setting": "[3]; n = 3", "result": "9.85% and 9.85 ± 2.14%"}, {"measurement": "Mean % Free (fractions 15.5-25 ml)", "setting": "[4]", "result": 98.39, "unit": "%"}, {"measurement": "Mean % Bound (fractions 5.5-15 ml)", "setting": "[4]; n = 3", "result": "1.61 ± 0.47", "unit": "%"}, {"measurement": "Mean ED50 ± SEM", "setting": "insulin receptors on LPM", "result": "8.49 ± 0.69", "unit": "nM"}]}
